This is an account of results in the supplement of paper PMC10567573.

The chains are these.
B1: PPFIA4 (parent)
chain: YAGNLHESGVHGALLALDENFDHN
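Further: lentivirally expressed fusions sorted by FACS into six bins by GFP to DsRed ratio, PSI derived from sequencing read proportions per bin multiplied by bin number.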

In the series the parent is B1. Put plainly: protein stability index of a GFP-peptide fusion (GPS, HEK-293T) (PSI 1-6); higher = more stable. Particulars: c terminus: a fixed tail appended.
In the case of YAGNLHVSGVHGALLALDENFDHN [E7V], the protein stability index amounted to 1.93.

With YAGNLHRSGVHGALLALDENFDHN [E7R], the protein stability index is 1.44.

Turning to YAGNLHKSGVHGALLALDENFDHN [E7K], the protein stability index is 1.52. For YAGNLHISGVHGALLALDENFDHN [E7I], the protein stability index was determined as 1.54. The result for YAGNLHLSGVHGALLALDENFDHN [E7L] reads 2.34; that for YAGNLHCSGVHGALLALDENFDHN [E7C], 1.67; that for YAGNLHGSGVHGALLALDENFDHN [E7G], 2. The result for YAGNLHMSGVHGALLALDENFDHN [E7M] reads 2.02; that for YAGNLHSSGVHGALLALDENFDHN [E7S], 2.58.

With YAGNLHHSGVHGALLALDENFDHN [E7H], the protein stability index turned out to be 1.77.

Turning to YAGNLHDSGVHGALLALDENFDHN [E7D], the protein stability index was 3.14. Regarding YAGNLHASGVHGALLALDENFDHN [E7A], the protein stability index turned out to be 1.9. Regarding YAGNLHWSGVHGALLALDENFDHN [E7W], the protein stability index worked out at 2.91. As for YAGNLHFSGVHGALLALDENFDHN [E7F], the figure is 2.77.

For the variant YAGNLHPSGVHGALLALDENFDHN [E7P], the protein stability index came to 1.95.

Take YAGNLHTSGVHGALLALDENFDHN [E7T]: the protein stability index amounted to 2.24.

In the case of YAGNLHYSGVHGALLALDENFDHN [E7Y], the protein stability index stood at 1.85. As for YAGNLHQSGVHGALLALDENFDHN [E7Q], the figure is 2.13; as for YAGNLHNSGVHGALLALDENFDHN [E7N], 1.81; as for YAGNLHEHGVHGALLALDENFDHN [S8H], 2.11. Turning to YAGNLHEEGVHGALLALDENFDHN [S8E], the protein stability index worked out at 3.28.

As for YAGNLHEWGVHGALLALDENFDHN [S8W], the protein stability index stood at 1.72. The result for YAGNLHELGVHGALLALDENFDHN [S8L] reads 1.97; that for YAGNLHEKGVHGALLALDENFDHN [S8K], 2.67; that for YAGNLHETGVHGALLALDENFDHN [S8T], 3.26. The result for YAGNLHEGGVHGALLALDENFDHN [S8G] reads 2.12; that for YAGNLHEQGVHGALLALDENFDHN [S8Q], 2.71; that for YAGNLHERGVHGALLALDENFDHN [S8R], 2.02.

Consider YAGNLHEIGVHGALLALDENFDHN [S8I], for which the protein stability index turned out to be 2.21.

As for YAGNLHEPGVHGALLALDENFDHN [S8P], the protein stability index was 2.49. The result for YAGNLHEVGVHGALLALDENFDHN [S8V] reads 2.48. As for YAGNLHECGVHGALLALDENFDHN [S8C], the figure is 2.39. Regarding YAGNLHEFGVHGALLALDENFDHN [S8F], the protein stability index worked out at 1.72.

YAGNLHEYGVHGALLALDENFDHN [S8Y]: the protein stability index turned out to be 2.28.

As to YAGNLHEDGVHGALLALDENFDHN [S8D], the protein stability index amounted to 3.16.

Consider YAGNLHENGVHGALLALDENFDHN [S8N], for which the protein stability index was determined as 2.33. The result for YAGNLHEAGVHGALLALDENFDHN [S8A] reads 2.51; that for YAGNLHEMGVHGALLALDENFDHN [S8M], 2.19; that for YWGNLHESGVHGALLALDENFDHN [A2W], 3.26. As for YNGNLHESGVHGALLALDENFDHN [A2N], the figure is 4.32. The result for YCGNLHESGVHGALLALDENFDHN [A2C] reads 2.38; that for YIGNLHESGVHGALLALDENFDHN [A2I], 2.12; that for YSGNLHESGVHGALLALDENFDHN [A2S], 3.31.

On to YHGNLHESGVHGALLALDENFDHN [A2H], for which the protein stability index was found to be 1.85. On to YTGNLHESGVHGALLALDENFDHN [A2T], for which the protein stability index was 3.09. With YMGNLHESGVHGALLALDENFDHN [A2M], the protein stability index was 3.23. As for YKGNLHESGVHGALLALDENFDHN [A2K], the figure is 4.68; as for YFGNLHESGVHGALLALDENFDHN [A2F], 3.84. As for YRGNLHESGVHGALLALDENFDHN [A2R], the figure is 4.27; as for YYGNLHESGVHGALLALDENFDHN [A2Y], 3.07; as for YLGNLHESGVHGALLALDENFDHN [A2L], 3.65.

With YDGNLHESGVHGALLALDENFDHN [A2D], the protein stability index was determined as 4.38. The result for YGGNLHESGVHGALLALDENFDHN [A2G] reads 3.49; that for YQGNLHESGVHGALLALDENFDHN [A2Q], 3.23. The result for YEGNLHESGVHGALLALDENFDHN [A2E] reads 4.19; that for YVGNLHESGVHGALLALDENFDHN [A2V], 1.45; that for YPGNLHESGVHGALLALDENFDHN [A2P], 3.96. YAGNWHESGVHGALLALDENFDHN [L5W]: the protein stability index was determined as 3.46. As for YAGNIHESGVHGALLALDENFDHN [L5I], the protein stability index is 1.94.

As for YAGNEHESGVHGALLALDENFDHN [L5E], the protein stability index came out at 4.34. As for YAGNVHESGVHGALLALDENFDHN [L5V], the figure is 2.12; as for YAGNHHESGVHGALLALDENFDHN [L5H], 2.38; as for YAGNMHESGVHGALLALDENFDHN [L5M], 2.23.

Turning to YAGNGHESGVHGALLALDENFDHN [L5G], the protein stability index is 2.21. As for YAGNFHESGVHGALLALDENFDHN [L5F], the figure is 2.02. In the case of YAGNQHESGVHGALLALDENFDHN [L5Q], the protein stability index amounted to 2.94. As for YAGNRHESGVHGALLALDENFDHN [L5R], the protein stability index was determined as 3.11.

Turning to YAGNYHESGVHGALLALDENFDHN [L5Y], the protein stability index is 1.82.

In the case of YAGNCHESGVHGALLALDENFDHN [L5C], the protein stability index is 2.58. Take YAGNDHESGVHGALLALDENFDHN [L5D]: the protein stability index is 3.71. Regarding YAGNKHESGVHGALLALDENFDHN [L5K], the protein stability index came to 2.86. The result for YAGNPHESGVHGALLALDENFDHN [L5P] reads 2.94; that for YAGNSHESGVHGALLALDENFDHN [L5S], 2.72.

Take YAGNNHESGVHGALLALDENFDHN [L5N]: the protein stability index stood at 2.96. As for YAGNTHESGVHGALLALDENFDHN [L5T], the figure is 2.84. The result for YAGNAHESGVHGALLALDENFDHN [L5A] reads 2.56. Turning to YAGNLHESLVHGALLALDENFDHN [G9L], the protein stability index was determined as 2.1. For the variant YAGNLHESCVHGALLALDENFDHN [G9C], the protein stability index is 2.05.

Take YAGNLHESSVHGALLALDENFDHN [G9S]: the protein stability index worked out at 2.63. Turning to YAGNLHESNVHGALLALDENFDHN [G9N], the protein stability index amounted to 3.1. As for YAGNLHESMVHGALLALDENFDHN [G9M], the figure is 3.23; as for YAGNLHESAVHGALLALDENFDHN [G9A], 2.46. For YAGNLHESKVHGALLALDENFDHN [G9K], the protein stability index is 2.68. As for YAGNLHESYVHGALLALDENFDHN [G9Y], the protein stability index was determined as 2.34.

For the variant YAGNLHESDVHGALLALDENFDHN [G9D], the protein stability index is 3.69. As for YAGNLHESIVHGALLALDENFDHN [G9I], the figure is 1.49.

With YAGNLHESTVHGALLALDENFDHN [G9T], the protein stability index turned out to be 2.9.

As for YAGNLHESRVHGALLALDENFDHN [G9R], the protein stability index is 2.31.

Take YAGNLHESPVHGALLALDENFDHN [G9P]: the protein stability index was determined as 3.59. As for YAGNLHESEVHGALLALDENFDHN [G9E], the figure is 3.49; as for YAGNLHESQVHGALLALDENFDHN [G9Q], 2.82. Take YAGNLHESFVHGALLALDENFDHN [G9F]: the protein stability index worked out at 1.83.

For YAGNLHESWVHGALLALDENFDHN [G9W], the protein stability index stood at 2.94. The result for YAGNLHESVVHGALLALDENFDHN [G9V] reads 2.98.
